Laboratory results: US20230272378A1, “ENCODING AND EXPRESSION OF ACE-tRNAs” (University of Rochester, priority 2020, published 2023)

Assays:
[1] = system: nuclei of nondividing cells; experiment: Nuclear localization of DNA after cytoplasmic microinjection; type: cell-based
From the text: (D) Schematic of ACE-tRNA MC and CEDT with SV40 DTS.
Inventors have screened over 60 strong general and cell-specific promoters and found seven DTSs. Of these, two perform ubiquitously, while five bind specific transcription factors expressed in a subset of cells.
As an alternative approach to directly labeling the plasmid with Cy3-PNAs, one can also carry out fluorescent in situ hybridization (FISH) to visualize injected DNA. DTS candidate plasmids can be tested for nuclear import activity over a 30 min to 8 hr period in microinjected A549 lung epithelial cells (Dean, D. A. Exp. Cell Res. 230, 293-302 (1997), Dean, D. A., et al., Exp. Cell Res. 253, 713-722 (1999), and Vacik, J., et al., Gene Therapy 6, 1006-1014 (1999)). […] This approach can allow one to rank sequences relative to the SV40 DTS based on their speed of nuclear import. Negative controls of the pUC57 plasmid with no DTS and a positive control of the pUC57-SV40 DTS can also be injected to ensure that the cells remain viable after injection and have the ability to transport DNA into the nucleus.
Importantly, existing MC and CEDT technologies are […] at PTC suppression in both cell culture and in vivo (FIGS. 4-7 and 10). […] Therefore, to improve nuclear targeting, transcription and PTC suppression, ACE-tRNA^ArgUGA MCs and CEDTs with the 72 nucleotide SV40 DTS and generally active DTS are generated. […]

[2] = system: PTC; experiment: High resolution mass-spectrometry of the amino acid encoded at the PTC
Protocol: Assays were carried out to ascertain whether ACE-tRNAs identified in the screen were functionalized at the expense of recognition by the aminoacyl-tRNA synthetase. […] It was confirmed that using high resolution mass-spectrometry, the cognate amino acid for both ACE-tRNA^GlyUGA and -tRNA^TrpUGA were encoded with high fidelity, resulting in seamless PTC suppression.

[3] = system: p.G542X-CFTR mRNA; experiment: qPCR of steady state CFTR mRNA (NMD inhibition) in p.G542X 16HBE14o- cells; type: cell-based, human; settings: 48 hours after transfection, ACE-tRNA^Gly delivered as plasmid
From the text: (§1) (A) Representative image of 16HBE14o- cells transfected on Transwells. (B) Representative Cl^− short circuit current traced from WT (Black), p.R1162X 16HBE14oe- cells transfected with empty vector (red) and 500 bp ACE-tRNA^Arg CEDTs (blue) in Ussing chamber recordings. […] All constructs were transfected at equal amounts. *p<0.05; **p<0.0001.
(§2) The majority of prior studies had used suppressor tRNAs to rescue PTCs encoded from cDNAs. […] In this example, 16HBE14o- cells, human bronchiole epithelial cell line, were used to determine ACE-tRNAs PTC suppression activity within the endogenous genomic landscape. Also used were mutant 16HBE14o- cells, which were CRISPR/Cas9 modified to harbor CF causing PTCs at positions p.G542X-, p.R1162X- and p.W1282X-CFTR. The cells were used to study CFTR and airway epithelia biology (Cozens, A. L. et al. American journal of respiratory cell and molecular biology 10, 38-47 (1994)).
(§3) The inventors next looked to see if ACE-tRNAs inhibited NMD following transfection of ACE-tRNA transcripts.

[4] = system: UGA codon; experiment: PTC suppression by ACE-tRNA: codon specificity and comparison with aminoglycosides; type: cell-based
From the text: Using a novel high throughput cloning (HTC) and screening (HTS) method, a library of more than 500 suppressor tRNAs (ACE-tRNAs) was recently developed. In the library, the anticodon of human tRNA genes were engineered to recognize disease causing PTC codons (UAG, UAA and UGA). The ACE-tRNAs platform targeted all possible PTCs that are resultant of one nucleotide change from translated codons (tRNA^ArgUGA, tRNA^GlnUAA, tRNA^GlnUAG, tRNA^TrpUGA, tRNA^TrpUAG, tRNA^GluUAA, tRNA^GluUAG, tRNA^CysUGA, tRNA^TyrUAG, tRNA^TyrUAA, tRNA^LeuUGA, tRNA^LeuUAG, tRNA^LeuUAA, tRNA^LysUAG, tRNA^LysUGA, tRNA^SerUGA, tRNA^SerUAG, and tRNA^SerUAA).

[5] = system: p.W1282X-CFTR mRNA; experiment: qPCR of steady state CFTR mRNA (NMD inhibition) in p.W1282X 16HBE14o- cells; type: cell-based, human; settings: pW1282X cells; 48 hours after transfection; equal amounts; plain ACE-tRNA^Leu = plasmid
From the text: as §1, §2, §3
It had been previously shown that leucine at CFTR p.W1282 (p.W1282L) gives ˜80% WT CFTR function, as measured with Ussing chamber recordings (Xue, X. et al., Human molecular genetics 26, 3116-3129, doi:10.1093/hmg/ddx196 (2017)).

[6] = system: W1282X-CFTR mRNA; experiment: CFTR mRNA expression in W1282X-CFTR 16HBE14ge- cells; type: cell-based, human
Protocol: In this example, studies were carried out to examine and compare rescues of endogenous CFTR PTCs with a conventional PTC readthrough agent (i.e., G418) and ACE-tRNAs delivered in plasmids. To that end, an engineered human bronchiole epithelial cell line, 16HBE14ge-, was used (Valley et al., Journal of Cystic Fibrosis, Volume 18, Issue 4, July 2019, Pages 476-483). G418 (Geneticin) is a standard PTC readthrough agent that works by interacting with the decoding center of the ribosome and promoting the suppression of PTCs with near-cognate tRNAs, thus incorporating wrong amino acids in many instances. Due to its non-specific nature, rescue by G418 results in generation of a missense mutation from a nonsense mutation. In contrast, ACE-tRNAs as disclosed herein put in the desired amino acid.
To carry out the assays, wildtype 16HBE14ge- cells or 16HBE14ge- cells having the W1282X-CFTR or R1162X-CFTR mutation were (i) treated with 100 uM G418 or vehicle, or (ii) transfected with empty plasmids or various plasmids encoding one or four copies of three ACE-tRNAs (SEQ ID NOs: 8, 4, and 1): 1×ACE-tRNA^Arg 4×ACE-tRNA^Arg, 1×ACE-tRNA^Leu 4×ACE-tRNA^Leu, 1×ACE-tRNA^Trp, and 4×ACE-tRNA^Trp in the manner described in Example 4. After 48 hours, the corresponding CFTR mRNA expression levels were then determined.
In this example, assays were carried out to examine and compare rescues of endogenous CFTR PTCs with ACE-tRNAs delivered in different formats e.g., plasmids, CEDTs, and MCs. The above described 16HBE14ge- cells, which expressed the PTC readthrough reporter piggyBac transgene (FIG. 15A) was used. More specifically, the cells were transfected with plasmids, CEDTs, or MCs encoding ACE-tRNAs. The cells were then sorted by FACS and mRNA was isolated from the non-green cells and green cells. Targeted RT-qPCR was used to quantify CFTR mRNA expression. […]
Further assays were carried out using 16HBEge- cells having W1282X-CFTR and the PTC readthrough reporter piggyBac transgene. […] The cells were NOT sorted by FACS for mRNA expression analysis, rather the entire population was analyzed.

B1: SV40 sequence: DNA sequence from the SV40 genome containing the enhancer repeats, DNA nuclear targeting sequence (nucleic acid)
DNA: ATGCTTTGCATACTTCTGCCTGCTGGGGAGCCTGGGGACTTTCCACACCCTAACTGACACACATTCCACAGCTGGTTGGTACCTGCA
modifications: listed as DNA, chemistry not fully specified
localization after cytoplasmic injection [1]: nuclear localization
time to plasmid nuclear import [1]: ≤ 30 min

B2: ACE-tRNA^GlyUGA: anti-codon edited glycine tRNA recognizing the UGA PTC, SEQ ID NO: 5 (nucleic acid)
chain: GCGUUGGUGGUAUAGUGGUUAGCAUAGCUGCCUUCAAAGCAGUUGACCCGGGUUCGAUUCCCGGCCAACGCA
modifications: expressed or natural sequence
fidelity of encoding the cognate amino acid [2]: high fidelity
inhibition of NMD measured by qPCR [3]: significantly inhibited NMD
stop codon specificity [4]: specific for the UGA codon
PTC suppression compared with AMG G418 and gentamicin ([4]; 48 hr incubation in HEK293 cells): significantly outperformed

B3: ACE-tRNA^LeuUGA: anti-codon edited leucine tRNA recognizing the UGA PTC, SEQ ID NO: 4 (nucleic acid)
chain: ACCAGAAUGGCCGAGUGGUUAAGGCGUUGGACUUCAGAUCCAAUGGAUUCAUAUCCGCGUGGGUUCGAACCCCACUUCUGGUA
modifications: expressed or natural sequence
inhibition of NMD / rescue measured by qPCR [5]: significantly inhibited NMD
rescue of CFTR mRNA ([6]; delivered via plasmids, FACS-sorted GFP+ and GFP− cells, RT-qPCR): significantly rescued
suppression of W1282X compared with Tryptophan ACE-tRNA ([6]; plasmids, 48 hours): more effectively
inhibiting nonsense mediated decay compared with G418 ([6]; plasmids, G418 100 uM, 48 hours, W1282X-CFTR cells): significantly more effective
